Measurements published in patent publication US20240401082A1 (Sanofi, published 2024).
Numbering of substitutions follows the chain as printed. Names and notes keep the numbering of the source.

T1: human complement C1s enzyme (activated C1s) (human, UniProt P09871 16-437; P09871 438-688)
T1 sequence 1: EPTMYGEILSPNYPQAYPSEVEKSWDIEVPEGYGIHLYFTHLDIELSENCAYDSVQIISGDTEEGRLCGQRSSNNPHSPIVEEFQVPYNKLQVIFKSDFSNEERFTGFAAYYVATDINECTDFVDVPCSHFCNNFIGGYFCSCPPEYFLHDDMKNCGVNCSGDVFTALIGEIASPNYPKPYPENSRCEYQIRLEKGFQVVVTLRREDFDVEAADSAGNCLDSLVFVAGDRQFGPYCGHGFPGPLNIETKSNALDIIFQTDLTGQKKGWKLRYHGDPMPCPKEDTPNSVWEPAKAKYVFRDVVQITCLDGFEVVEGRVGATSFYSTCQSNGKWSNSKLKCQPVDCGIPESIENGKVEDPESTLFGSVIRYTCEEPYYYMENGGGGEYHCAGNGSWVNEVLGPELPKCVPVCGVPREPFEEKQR
T1 sequence 2: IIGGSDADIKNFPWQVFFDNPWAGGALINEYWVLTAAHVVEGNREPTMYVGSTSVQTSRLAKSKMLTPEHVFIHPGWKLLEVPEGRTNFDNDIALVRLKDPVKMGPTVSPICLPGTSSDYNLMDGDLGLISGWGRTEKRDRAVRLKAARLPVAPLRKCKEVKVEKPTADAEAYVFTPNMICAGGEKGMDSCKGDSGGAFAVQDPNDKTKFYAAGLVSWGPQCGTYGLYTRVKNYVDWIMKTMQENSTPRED

B1: construct #7: αC1s scFab-(G4S)3-αBb scFab (bispecific antibody)
chain: DIVLTQSPDSLAVSLGERATISCKASQSVDYDGDSYMNWYQQKPGQPPKILIYDASNLESGIPARFSGSGSGTDFTLTISSLEPEDFAIYYCQQSNEDPWTFGGGTKVEIKRTVAAPSVFIFPPSDEQLKSGTASVVCLLNNFYPREAKVQWKVDNALQSGNSQESVTEQDSKDSTYSLSSTLTLSKADYEKHKVYACEVTHQGLSSPVTKSFNRGECGGGGSGGGGSGGGGSGGGGSGGGGSGGGGSGGGGSQVQLVQSGAEVKKPGASVKLSCTASGFNIKDDYIHWVKQAPGQGLEWIGRIDPADGHTKYAPKFQVKVTITADTSTSTAYLELSSLRSEDTAVYYCARYGYGREVFDYWGQGTTVTVSSASTKGPSVFPLAPCSRSTSESTAALGCLVKDYFPEPVTVSWNSGALTSGVHTFPAVLQSSGLYSLSSVVTVPSSSLGTKTYTCNVDHKPSNTKVDKRVGGGGSGGGGSGGGGSDIQMTQSPSTLSASVGDRVTITCKASQDVGTAVAWYQQKPGKAPKLLIYWASTRHTGVPDRFSGSGSGTDFTLTISSLQAEDFAVYFCHQHSSNPLTFGQGTKLEIKRTVAAPSVFIFPPSDEQLKSGTASVVCLLNNFYPREAKVQWKVDNALQSGNSQESVTEQDSKDSTYSLSSTLTLSKADYEKHKVYACEVTHQGLSSPVTKSFNRGECGGGGSGGGGSGGGGSGGGGSGGGGSGGGGSGGGGSEVQLVESGGGLVKPGGSLRLSCAASGFTFSNYAMSWVRQAPGKRLEWVATISNRGSYTYYPDSVKGRFTISRDNAKNSLYLQMNSLRAEDTALYYCARERPMDYWGQGTLVTVSSASTKGPSVFPLAPCSRSTSESTAALGCLVKDYFPEPVTVSWNSGALTSGVHTFPAVLQSSGLYSLSSVVTVPSSSLGTKTYTCNVDHKPSNTKVDKRV
notes: Signal peptide marked by boldface only
B2: construct #11: αC1s scFab-(G4S)3-αBb scFab-CM (bispecific antibody)
chain: B1 chain with Q42E, Q292K, Q523K, S599A, N622K, Q773E, T919E
notes: Residues 1-20 were left out as the signal peptide, which is marked by boldface only
B3: construct #15: αC1s scFab-(G4S)3-αBb scFv (bispecific antibody)
chain: DIVLTQSPDSLAVSLGERATISCKASQSVDYDGDSYMNWYQQKPGQPPKILIYDASNLESGIPARFSGSGSGTDFTLTISSLEPEDFAIYYCQQSNEDPWTFGGGTKVEIKRTVAAPSVFIFPPSDEQLKSGTASVVCLLNNFYPREAKVQWKVDNALQSGNSQESVTEQDSKDSTYSLSSTLTLSKADYEKHKVYACEVTHQGLSSPVTKSFNRGECGGGGSGGGGSGGGGSGGGGSGGGGSGGGGSGGGGSQVQLVQSGAEVKKPGASVKLSCTASGFNIKDDYIHWVKQAPGQGLEWIGRIDPADGHTKYAPKFQVKVTITADTSTSTAYLELSSLRSEDTAVYYCARYGYGREVFDYWGQGTTVTVSSASTKGPSVFPLAPCSRSTSESTAALGCLVKDYFPEPVTVSWNSGALTSGVHTFPAVLQSSGLYSLSSVVTVPSSSLGTKTYTCNVDHKPSNTKVDKRVGGGGSGGGGSGGGGSEVQLVESGGGLVKPGGSLRLSCAASGFTFSNYAMSWVRQAPGKRLEWVATISNRGSYTYYPDSVKGRFTISRDNAKNSLYLQMNSLRAEDTALYYCARERPMDYWGQGTLVTVSSGGGGSGGGGSGGGGSDIQMTQSPSTLSASVGDRVTITCKASQDVGTAVAWYQQKPGKAPKLLIYWASTRHTGVPDRFSGSGSGTDFTLTISSLQAEDFAVYFCHQHSSNPLTFGQGTKLEIK
notes: as for B2
B4: construct #16: αC1s scFab-(G4S)3-αBb scFv-CM (bispecific antibody)
chain: B3 chain with Q42E, Q292K, Q524E, Q653K
notes: as for B2

biological target: T2, human complement factor Bb (human, UniProt P00751 260-764); experiment: cell-based or functional assay
T2 sequence (P00751 260-764): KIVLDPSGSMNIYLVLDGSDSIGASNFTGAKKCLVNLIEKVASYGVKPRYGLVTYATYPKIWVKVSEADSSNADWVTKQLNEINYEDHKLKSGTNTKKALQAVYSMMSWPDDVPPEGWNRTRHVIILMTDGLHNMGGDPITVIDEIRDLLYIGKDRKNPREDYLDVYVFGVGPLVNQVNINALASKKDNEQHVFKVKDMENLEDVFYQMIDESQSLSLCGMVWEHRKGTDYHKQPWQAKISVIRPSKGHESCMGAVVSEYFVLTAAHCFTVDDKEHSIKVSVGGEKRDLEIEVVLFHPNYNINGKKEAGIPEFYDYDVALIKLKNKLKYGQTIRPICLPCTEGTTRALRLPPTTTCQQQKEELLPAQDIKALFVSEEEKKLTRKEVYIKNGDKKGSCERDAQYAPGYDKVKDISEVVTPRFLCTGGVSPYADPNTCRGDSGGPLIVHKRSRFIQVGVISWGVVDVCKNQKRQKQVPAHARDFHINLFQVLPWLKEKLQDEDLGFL

| IC50 AP (Wieslab) | IC50 AP (Wieslab); curve not saturated, estimated | Binder |
| --- | --- | --- |
| 570 nM |  | B1 |
|  | ~1000 nM | B2 |
| 405 nM |  | B3 |
| 586 nM |  | B4 |

biological target: T1, human complement C1s enzyme (activated …); experiment: cell-based or functional assay

| IC50 CP (Wieslab) | Binder |
| --- | --- |
| 45.9 nM | B1 |
| 49.7 nM | B2 |
| 34.7 nM | B3 |
| 35.4 nM | B4 |

biological target: T2, human complement factor Bb; experiment: BLI (Octet), biotinylated target on streptavidin sensor
Excerpt: (§1) Bio-layer interferometry (BLI) was used to assess the recombinant proteins' target engagement to and binding affinity for complement C1s enzyme (active C1s or “C1s” herein) and factor Bb (Bb) (Complement Technology, Tyler, TX, USA). C1s and Bb were biotinylated with EZ-Link™ Sulfo-NHS-LC-LC-Biotin (Thermo Fisher, Waltham, MA, USA) according to manufacturer instructions. Biotinylated C1s or Bb was loaded on Octet® Streptavidin (SA) Biosensors (Sartorius, Göttingen, Germany), followed by a concentration range of purified proteins. To assess dual target engagement, biotinylated active C1s or Bb was loaded onto sensors, followed by purified proteins (“first association phase”), followed by the non-captured complement target (Bb or active C1s, non-biotinylated; “second association phase”). The assays were performed at 30° C. using PBS with 0.1% Tween 20 as a diluent (FIG. 3).

| Kd | koff | kon | Binder |
| --- | --- | --- | --- |
| 9.3 nM | 0.00054 s⁻¹ | 60000 M⁻¹ s⁻¹ | B1 |
| 8.8 nM | 0.00051 s⁻¹ | 60000 M⁻¹ s⁻¹ | B2 |
| 3.9 nM | 0.00045 s⁻¹ | 120000 M⁻¹ s⁻¹ | B3 |
| 2.5 nM | 0.00023 s⁻¹ | 90000 M⁻¹ s⁻¹ | B4 |

biological target: T1, human complement C1s enzyme (activated …); experiment: as above
Excerpt: as §1

| Kd | koff | kon | Binder |
| --- | --- | --- | --- |
| 1.8 nM | 0.00047 s⁻¹ | 260000 M⁻¹ s⁻¹ | B1 |
| 2.7 nM | 0.00058 s⁻¹ | 210000 M⁻¹ s⁻¹ | B2 |
| 1.6 nM | 0.00057 s⁻¹ | 370000 M⁻¹ s⁻¹ | B3 |
| 1.4 nM | 0.00051 s⁻¹ | 360000 M⁻¹ s⁻¹ | B4 |
